Consider 19 molecules from patent publication US20240270826A1 (NATIONAL RESEARCH COUNCIL OF CANADA, published 2024).

Where two headings read alike, the source gives them in different places.

For experiment [1], the target named is T1, Human SARS-CoV-2_Wuhan S (SmT1) (SARS-CoV-2 (Wuhan), UniProt P0DTC2 14-1208). Nature of the experiment: SPR, VHH over immobilised S. A general note: SPR reads the build-up and loss of mass on a sensor chip optically.
The target of experiment [2] is SARS-CoV spike (S) (SARS-CoV, UniProt P59594 14-1195). Nature of the experiment: SPR, VHH over immobilised S.
Experiment [3] deals with T1, Human SARS-CoV-2_Wuhan S (SmT1). In words: SPR, VHH over immobilised S. This is another data set of the same source.
The target of experiment [4] is Human SARS-CoV-2_Wuhan S (SmT1) (SARS-CoV-2 (Wuhan), UniProt P0DTC2 14-1208). Nature of the experiment: flow cytometry SVNA, VHH vs biotin-S binding to Vero E6 ACE2. On the technique in general: In flow cytometry, cells or beads pass a laser one at a time.

In general, Kd refers to the concentration at which binding is half-saturated. The koff is a measure of how fast the partners let go of each other. A low value points to slow dissociation. By kon is commonly meant the second-order rate constant of association. Broadly, the IC50 is the concentration that gives 50% inhibition. Low readings indicate inhibition by little substance, high ones a need for much substance. The IC99 is the concentration needed for an effect of 99%.

B1: NRCoV2-S2G3 VHH (VHH)
VHH: QVQLVQSGGGSVQAGGSLRLSCAASGSTFGIFLMGWRRQAPGKQRELVAHITSGGATNYADSVKGRFTISRDNAKNTVYLQMNSLEPEDTAVYYCYTTKRDDASVYWGQGTQVTVSS
In the case of B1, the equilibrium dissociation constant (Kd) in experiment [1] was found to be 1.87 nM; in experiment [2] it was 4.27 nM; in experiment [3] it was 1.87 nM. For the same molecule, the values for the koff in experiment [1] and in experiment [2] were 0.000606 s⁻¹ and 0.0008 s⁻¹, respectively. Also, the on-rate (kon) stood at 324000 M⁻¹ s⁻¹ in experiment [1] and 187000 M⁻¹ s⁻¹ in experiment [2].

B2: NRCoV2-MRed22 VHH (VHH)
VHH: EVQLVESGGGLVQPGGSLRLSCAASGSVFASNAMGWYRQAPGKQRELVATISSRGSTNYADSVKGRFTISRDNAKNTVYLQMNSLGPEDTAVYYCNAREFTGFDYWGQGTQVTVSS
In experiment [1], B2 registered a Kd of 0.506 nM, a koff of 0.000176 s⁻¹ and a kon of 347000 M⁻¹ s⁻¹. Also, the binding result in experiment [2] was “no binding”. The molecule further yielded a Kd in experiment [3] of 0.51 nM.

B3: NRCoV2-S2F3 VHH (VHH)
VHH: EVQLVQSGGGLVQAGGSLRLSCATSVRILSVPAMGWYRQAPGKEREMVAVITSGGSTNYADSVKGRFTISRDNAKNTVYLQMNSLKLEDTAVYQCNLRDILSQPFWGQGTQVTVSS
In experiment [1], B3 came in with a dissociation constant Kd of 3.03 nM, a koff of 0.000473 s⁻¹ and an association rate constant (kon) of 156000 M⁻¹ s⁻¹. In experiment [2], this molecule registered a Kd of 4.91 nM, a koff of 0.00139 s⁻¹ and a kon of 282000 M⁻¹ s⁻¹. In experiment [3], this molecule yielded a dissociation constant Kd of 3.03 nM.

B4: NRCoV2-MRed19 VHH (VHH)
VHH: EVQLVESGGGLVQPGGSLRLSCAASTIIFKGQTMGWFRQAPGNERELVATMTTSGSANYADSVKGRFTISRDNEKTVTLQMNSLKPEDTALYYCYMHSVYYGIDYWGKGTQVTVSS
Consider B4, for which, in experiment [1], the Kd worked out at 9.07 nM, the koff was found to be 0.00118 s⁻¹ and the kon came out at 131000 M⁻¹ s⁻¹. Besides, in experiment [2], the equilibrium dissociation constant (Kd) came out at 24.6 nM, the off-rate constant (koff) came out at 0.00614 s⁻¹ and the kon is 249000 M⁻¹ s⁻¹. The molecule also showed a dissociation constant (Kd) in experiment [3] of 9.07 nM.

B5: NRCoV2-SR16 VHH (VHH)
VHH: QVQLVQSAGGLVQAGGSLRLSCVVSGTTFSRYHMGWHRQAPGKQRDFVAGISTSGAVTYADSAKGRFTISRDNAKNTVYLEMNSLKLEDTALYYCNTGGWDYRSSTFIMGLNWGQGTQVTVSS
In experiment [1], B5 came in with a dissociation constant (Kd) of 1.96 nM, a dissociation rate constant (koff) of 0.000957 s⁻¹ and an on-rate constant (kon) of 488000 M⁻¹ s⁻¹. Besides, the binding result in experiment [2] is given as “no binding”. Further, the affinity in experiment [3], expressed as Kd, was 2 nM.

B6: NRCoV2-SR04 VHH (VHH)
VHH: QVQLVESGGGLVQAGGSLRLSCAASGRTFSSHTVGWYRQAPGKQRDLVAAISMGGNTNYADYADSVKGRFTISRDNAKNTLYLQMNSLKPEDTAVYYCNTAALVGNRLLPMATITWGQGTQVTVSS
In the case of B6, in experiment [1], the dissociation constant Kd stood at 0.14 nM, the koff amounted to 0.000515 s⁻¹ and the kon is 3.68e+06 M⁻¹ s⁻¹. The binding result in experiment [2] is “no binding”. In experiment [3], this molecule registered a Kd of 0.14 nM.

B7: NRCoV2-MRed03 VHH (VHH)
VHH: EVQLVESGGGLVQPGGSLRLSCAAIGFTLDYYAIGWFRQAPGKEREGVSCISSSDGSTYYADSVKGRFTISRDNAKNTVYLQMNSLKPEDTAVYYCATDAFATCDSWYAQIAQYDFRGQGTQVTVSS
On to B7, for which, in experiment [1], the Kd stood at 0.508 nM, the koff turned out to be 0.000121 s⁻¹ and the kon was 237000 M⁻¹ s⁻¹. Further, the binding result in experiment [2] was “no binding”. In addition, the equilibrium dissociation constant (Kd) in experiment [3] was found to be 0.51 nM.

B8: NRCoV2-MRed06 VHH (VHH)
VHH: EVQLVESGGGLVQAGGSLRLSCAASGFTLAYYAIGWFRQAPGKEREGVSCISSSDGSAHYADSVKGRFTISRDNAKNTVSLQMNSLKPEDTAVYYCATDSFSSCSDYESGMDFWGKGTQVTVSS
In experiment [1], B8 came in with a dissociation constant (Kd) of 5.19 nM, an off-rate constant (koff) of 0.000996 s⁻¹ and a kon of 192000 M⁻¹ s⁻¹. Besides, in experiment [2], the binding result is “no binding”. Moreover, the dissociation constant (Kd) in experiment [3] was 5.2 nM.

B9: NRCoV2-MRed18 VHH (VHH)
VHH: EVQLVESGGGLVQPGGSLRLSCAASTTVFGRNAMGWYRQAPGKERELVATVSDGGTPNYADSVKGRFTISRDNAKNTIYLQMNSLEPEDTAVYYCNYYNYYYGRNFWGQGTQVTVSS
Turning to B9, in experiment [1], the dissociation constant Kd worked out at 6.03 nM, the koff worked out at 0.00119 s⁻¹ and the kon came out at 197000 M⁻¹ s⁻¹. Also, in experiment [2], the dissociation constant Kd turned out to be 22.5 nM, the koff was found to be 0.00677 s⁻¹ and the association rate constant (kon) amounted to 300000 M⁻¹ s⁻¹. In experiment [3], this molecule returned an equilibrium dissociation constant (Kd) of 6.03 nM.

B10: NRCoV2-S2A4 VHH (VHH)
VHH: QVQLVQSGGGLVQAGGSLRLSCAVSGSPFRSNVMEWYRQAPGKQRELVASISTGGSRTYTDSVKGRFTISRDNAKNEAFLQMNSLKPEDTAVYYCHAAARDSHGIYLLDTWGQGTQVTVSS
Turning to B10, in experiment [1], the Kd is 12.8 nM, the off-rate (koff) came to 0.000446 s⁻¹ and the association rate constant (kon) was found to be 34900 M⁻¹ s⁻¹. Also, the binding result in experiment [2] is “no binding”. In addition, in experiment [3], the Kd was determined as 12.8 nM.

B11: NRCoV2-SR01 VHH (VHH)
VHH: EVQLVQSGGGSVQAGGSLRLSCVASGFTFDNYAIGWFRQAPGKEREGVSCISGNGGVTIYADSVKGRFTISRDNAKNLVYLQMNSLKPEDTAVYYCAATGIRSTWSVYGCSRLAGPYDYWGQGTQVTVSS
For the molecule B11, in experiment [1], binding was put at a Kd of 0.564 nM, the off-rate constant (koff) came to 0.000805 s⁻¹ and the kon is 1.43e+06 M⁻¹ s⁻¹. Also, in experiment [2], binding was characterised by a dissociation constant (Kd) of 0.154 nM, the koff was 0.000105 s⁻¹ and the on-rate constant (kon) amounted to 681000 M⁻¹ s⁻¹. The molecule also registered a dissociation constant Kd in experiment [3] of 0.56 nM.

B12: NRCoV2-MRed11 VHH (VHH)
VHH: EVQLVESGGGLVQAGGSLRLSCAASGFTFSSYAMSWHRQAPGKGLEWVSAINSGGGSTSYADSVKGRFAISRDNAKNTLYLQMNSLKPEDTAVYYCATTISDGSSWSTKSYRGQGTQVTVSS
In experiment [1], B12 displayed a Kd of 6.2 nM, a koff of 0.000283 s⁻¹ and a kon of 45700 M⁻¹ s⁻¹. The binding result in experiment [2] is “no binding”. Moreover, the dissociation constant Kd in experiment [3] came to 6.2 nM.

B13: NRCoV2-MRed04 VHH (VHH)
VHH: EVQLVESGGGLVQPGRSLRLSCAASGNSFSISTMGWFRQAPGKERELVASIWSDTTTSYADSVKGRFTISTDNTRTKVYLQMSSLNPEDTAVYYCAADRGFVVRGQYDYWGQGTQVTVSS
With B13, in experiment [1], the affinity, expressed as Kd, was 0.863 nM; the off-rate (koff) worked out at 0.00131 s⁻¹; the kon is 1.51e+06 M⁻¹ s⁻¹. In experiment [2], this molecule registered a Kd of 300 nM, an off-rate constant (koff) of 0.097 s⁻¹ and a kon of 323000 M⁻¹ s⁻¹. Binding in experiment [3] was characterised by a dissociation constant (Kd) of 0.86 nM.

B14: NRCoV2-S2G4 VHH (VHH)
VHH: QVQLVQSGGGLVQAGGSLTLSCAPSGSTFSGYATNWYRQAPGKQRELVATISSDGDKNYADSVKGRFTISRDNAKNTVYLQMNSLKPEDTAVYYCNKHWWTGDWWGQGTQVTVSS
Consider B14, for which the equilibrium dissociation constant (Kd) was found to be 0.232 nM in experiment [1], 0.799 nM in experiment [2] and 0.23 nM in experiment [3]. Also, the koff came to 0.000207 s⁻¹ in experiment [1] and 0.000735 s⁻¹ in experiment [2]. Further, the kon in experiment [1] came out at 893000 M⁻¹ s⁻¹; in experiment [2] it was 920000 M⁻¹ s⁻¹.

B15: NRCoV2-SR03 VHH (VHH)
VHH: AVQLVDSGGGLVQAGGSLRLSCAASGSIFSNNHMGWYRQAPGKQRELVAAISSGGKTNYADFAKGRFTISRDNAKNMVYLQMNSLKPEDTAVYYCNRGGWEYRSSYYIMGPHWGQGTQVTVSS
For the molecule B15, in experiment [1], the Kd came to 1.69 nM, the koff was found to be 0.00113 s⁻¹ and the association rate constant (kon) was 670000 M⁻¹ s⁻¹. For the same molecule, in experiment [2], the binding result was “no binding”. In addition, the Kd in experiment [3] was 1.69 nM.

B16: NRCoV2-MRed20 VHH (VHH)
VHH: EVQLVESGGGSVQAGGSLRLSCAASGLSFSSYDMGWFRQAPGKEREFVAAIRESGSGTYYADSVKGRFTISRDNAKNTVYLQVSSLKPEDTAVYTCAAKPPFYGSGTYSTPRAYLYWGQGTQVTVSS
B16: in experiment [1], the affinity, expressed as Kd, was 0.0918 nM; the koff was 1.46e-05 s⁻¹; the kon turned out to be 160000 M⁻¹ s⁻¹. In experiment [2], this molecule returned a Kd of 10.7 nM, a koff of 0.00406 s⁻¹ and an on-rate (kon) of 380000 M⁻¹ s⁻¹. For the same molecule, the Kd in experiment [3] was 0.092 nM.

B17: NRCoV2-MRed07 VHH (VHH)
VHH: EVQLVESGGGLVQPGGSLTLSCAASGSIGPFNTMGWYRQAPGNQREPAAIITRGGVTNYADSVKGRFTISRDNAKNAVYLQMDSLKPDDTAVYYCYANYGWAIPYWGNGTQVTVSS
For B17, in experiment [1], binding was characterised by a dissociation constant (Kd) of 0.105 nM, the koff worked out at 0.000481 s⁻¹ and the kon turned out to be 4.58e+06 M⁻¹ s⁻¹. Moreover, the binding result in experiment [2] was “no binding”. The Kd in experiment [3] was 0.11 nM.

B18: NRCoV2-MRed25 VHH (VHH)
VHH: EVQLVESGGGLVQAGGSLRLSCAASGHTFSRYGMGWFRQAPGKEREFVAAISWRGDSTYYRDSVNGRFTISRDNAKNTVYLGMNSLKPEDTAVYYCAAEMWGTATIVASRYTYWGQGTQVTVSS
As for B18, the equilibrium dissociation constant (Kd) in experiment [1] worked out at 1.02 nM; in experiment [2], 2.29 nM; in experiment [3] it was 1.02 nM. Besides, the off-rate (koff) in experiment [1] was 0.000115 s⁻¹; in experiment [2] it was 5.01e-05 s⁻¹. Also, the kon was 112000 M⁻¹ s⁻¹ in experiment [1] and 21800 M⁻¹ s⁻¹ in experiment [2].

B19: NRCoV2-20 VHH (VHH)
VHH: EVQLQQSGGGLVQPGGSLRLSCAASGRTFSNYVVGWFRQAPQAPGKDHEFVAVISGSDTETYYADSVKGRFTISRDNAKNTVYLQMNSLKPEDTAVYYCAADRGMSYYYTRATEYYYWGQGTQVTVSS
In experiment [4], B19 displayed an IC50 of 5.1 nM, an IC99 of 1370 nM and an Imax % of 43%.
